Experimental findings from PMC3399532 (Prion, 2012) are described below.

In the assay the target is truncated MoPrP(89–230) (mouse, UniProt P04925 89-230). Nature of the assay: ELISA.

B1: mouse (Mo) Dpl (26–155) (domain or fragment)
chain: ARGIKHRFKWNRKVLPSSGGQITEARVAENRPGAFIKQGRKLDIDFGAEGNRYYAANYWQFPDGIYYEGCSEANVTKEMLVTSCVNATQAANQAEFSREKQDSKLHQRVLWRLIKEICSAKHCDFWLERG
As to B1, the binding result is “binds”.
